Measured values published in US20250134019A1, “TRIKETONE DIOXYGENASE VARIANTS FOR HERBICIDE TOLERANCE” (Monsanto Technology LLC, priority 2022, published 2025).

Assays:
Format in all cases: in vivo
[1] = tested on: transgenic soybean plants; assay: Mesotrione injury of R0 transgenic soybean plants expressing TDO homologs; conditions: promoter Constitutive 2, 3' UTR B; 210 g a.i./ha mesotrione at V3-V4, rated 7-14 days after treatment; mean of all tested events
Method: Plant expression vectors comprising the selected TDO homologs under the control of one of two constitutive promoters were transformed into soybean via an Agrobacterium tumefaciens-mediated method. Following Agrobacterium transformation, R0 transgenic soybean plants containing a single copy of the transgene were identified through molecular characterization and segregation analysis. Transgenic and wild-type (control) plants were grown in 6-inch pots filled with BM7 soilless mix in a growth chamber under the conditions of 28° C./23° C. (light/dark) and a 16 hr light/8 hr dark photoperiod. Plants were fertilized with 15-5-15 liquid fertilizer at the V3-V4 growth stage and treated with 210 g a.i./ha mesotrione (1X=105 g a.i./ha; Callisto®, Syngenta in 1% crop oil). Plants were visually rated 7-14 days after treatment on a scale of 0% to 100%, with 0%=no injury and 100%=plant death, relative to the wild-type controls. The results summarized in Table 2 represent the mean of all tested events (10-15) for each construct.

[2] = tested on: transgenic soybean plants; assay: Response of R0 soybean plants transformed with Round 2 TDO variants to mesotrione; conditions: same expression elements; Os.TDO control failed transformation in this experiment
Source text: The next set of experiments was focused on determining if the balance between improved enzyme stability could outweigh a reduction in activity observed at optimal temperatures in soybean plants. […] To test this hypothesis, the eight variants from Round 2 biochemical analysis described in the preceding paragraph were transformed into soybean through Agrobacterium-mediated transformation, along with three controls. One of the controls (TDO_9) was a variant from the high-throughput screens that had poor activity. Two other controls were the D08 variant and the Os.TDO. R0 transgenic soybean plants were sprayed with the mesotrione herbicide to screen for herbicide tolerance. […] These included the Os.TDO control, the D08 variant and one Round 2 variant. The plants were scored for percent injury as described in the previous examples.

transgenic cotton plants = assay: Mesotrione treatment of cotton plants expressing TDO variants, crop injury; conditions: Under 80° F., R2 cotton sprayed at V3
Method: Cotton is a crop of interest that is often exposed to high temperature growing conditions and thus, selected TDO variants were tested in cotton. Three TDO variants, D08, TDO_6, and TDO_8 were transformed into cotton (along with the Os.TDO control) using similar expression elements in single-cassette vectors or as part of multi-cassette vectors. R2 transgenic cotton plants were then screened for tolerance to mesotrione. Sixteen plants from two events each per construct were sprayed with two rates (2X and 8X) of mesotrione at V3 stage under normal (80° F.) and hot (100° F.) growing conditions. In addition, the effect of heat treatment on TDO accumulation in cotton plants were measured by ELISA. Cotton plants were planted and grown under normal greenhouse conditions (80° F. day/70° F. night) until V3 growth stage. Half of the plants were then moved to a higher temperature growth chamber (100° F. day/82° F. night) for the heat treatment, whereas the remaining half of the plants stayed in the same greenhouse (80° F. day/70° F. night). At day 3 after the plants were placed under different temperature conditions, leaf samples were collected for TDO protein measurement. The plants in 100° F. growth chamber and in 80° F. greenhouse were both sprayed with 2X mesotrione (210 g a.i./ha). Leaf samples were collected again 7 days after mesotrione treatment (DAT: Days After Treatment) for protein assay. Table 5 compares protein levels of the TDO variants in transgenic cotton plants grown under the two tested conditions. The protein levels for the TDO variants were measured at three time points for plants: 1) just before entering the high temperature treatment, 2) three days following placement into control (normal growth temperature) or high temperature (100° F.), and 3) 7 days after a 2X mesotrione spray.

B1: Os.TDO: TDO from Oryza sativa (HIS1), SEQ ID NO:2, polynucleotide codon optimized for dicot expression (protein, listed as Oryza sativa)
chain: MADESWRAPAIVQELAAAGVEEPPSRYLLREKDRSDVKLVAAELPEPLPVVDLSRLDGAEEATKLRVALQNWGFFLLTNHGVEASLMDSVMNLSREFFNQPIERKQKFSNLIDGKNFQIQGYGTDRVVTQDQILDWSDRLHLRVEPKEEQDLAFWPDHPESFRDVLNKYASGTKRIRDDIIQAMAKLLELDEDYFLDRLNEAPAFARFNYYPPCPRPDLVFGIRPHSDGTLLTILLVDKDVSGLQVQRDGKWSNVEATPHTLLINLGDTMEVMCNGIFRSPVHRVVTNAEKERISLAMLYSVNDEKDIEPAAGLLDENRPARYRKVSVEEFRAGIFGKFSRGERYIDSLRI
% Injury [1]: 12%
typical injury rating for R0 soybean [2]: high 20% to low 30%
Crop Injury (%), 210 g/ha (2X) Mesotrione (transgenic cotton plants): 0%
Crop Injury (%), 840 g/ha (8X) Mesotrione (transgenic cotton plants): 0%
